Nine molecules from patent publication US20110098217A1 (INDIANA UNIVERSITY RESEARCH AND TECHNOLOGY, published 2011) can be followed below.

A word on the IC50: it is the midpoint of a concentration-inhibition curve. A low value points to inhibition by little substance.

The target of test [1] is T1, human GLP-1 receptor (human, UniProt P43220 24-463). Briefly: cell-based or functional assay.
Target sequence in this assay (P43220 24-463): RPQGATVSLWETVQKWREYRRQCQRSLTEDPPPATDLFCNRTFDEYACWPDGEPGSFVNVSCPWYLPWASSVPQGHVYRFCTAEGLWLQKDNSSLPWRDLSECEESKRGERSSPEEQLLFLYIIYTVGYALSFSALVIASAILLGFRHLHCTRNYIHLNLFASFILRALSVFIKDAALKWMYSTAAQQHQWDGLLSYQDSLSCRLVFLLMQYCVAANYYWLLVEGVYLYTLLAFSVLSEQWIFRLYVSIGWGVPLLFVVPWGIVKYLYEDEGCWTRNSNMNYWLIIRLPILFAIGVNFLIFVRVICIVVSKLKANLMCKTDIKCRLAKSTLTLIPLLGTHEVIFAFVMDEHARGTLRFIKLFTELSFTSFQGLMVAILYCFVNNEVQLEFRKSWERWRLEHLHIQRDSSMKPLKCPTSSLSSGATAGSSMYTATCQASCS
For test [2], the target named is T2, human glucagon receptor (human, UniProt P47871 26-477). Nature of the test: cell-based or functional assay.
T2 sequence (P47871 26-477): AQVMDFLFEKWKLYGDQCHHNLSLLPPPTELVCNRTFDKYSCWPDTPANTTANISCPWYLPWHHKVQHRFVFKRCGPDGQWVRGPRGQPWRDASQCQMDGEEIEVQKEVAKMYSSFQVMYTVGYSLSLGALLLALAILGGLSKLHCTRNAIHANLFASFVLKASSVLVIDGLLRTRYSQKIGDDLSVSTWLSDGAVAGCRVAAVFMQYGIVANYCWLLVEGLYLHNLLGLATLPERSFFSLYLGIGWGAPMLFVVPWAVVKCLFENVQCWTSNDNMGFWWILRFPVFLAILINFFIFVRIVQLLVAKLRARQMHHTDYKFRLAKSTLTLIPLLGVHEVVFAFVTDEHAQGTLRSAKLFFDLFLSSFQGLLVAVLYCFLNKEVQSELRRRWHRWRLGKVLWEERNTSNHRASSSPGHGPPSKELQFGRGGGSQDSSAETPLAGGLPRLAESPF
Test [3] addresses human GLP-1 receptor (human) (UniProt P43220). Briefly: cell-based or functional assay.
Test [4] has as its target human glucagon receptor (human) (UniProt P47871). Briefly: cell-based or functional assay.
The target in test [5] is human GLP-1 receptor (human) (UniProt P43220). Briefly: cell-based or functional assay. This is another data set of the same source.
human GLP-1 receptor (human), sequence (P43220 24-463): as the sequence (P43220 24-463) above
In test [6] the target is human glucagon receptor (human) (UniProt P47871). Nature of the test: cell-based or functional assay. This is another data set of the same source.
human glucagon receptor (human), sequence (P47871 26-477): as the sequence (P47871 26-477) above
Test [7] concerns the target T2, human glucagon receptor. Nature of the test: cell-based or functional assay. This is another data set of the same source.
For test [8], the target named is T2, human glucagon receptor. Nature of the test: cell-based or functional assay. The source holds these as a separate data set.
The target in test [9] is T1, human GLP-1 receptor. Nature of the test: cell-based or functional assay. This is another data set of the same source.
Test [10] concerns the target T2, human glucagon receptor. Nature of the test: cell-based or functional assay. The source holds these as a separate data set.
In test [11] the target is T2, human glucagon receptor. Briefly: SPA competition vs 125I-glucagon, receptor membranes.
Test [12] concerns the target T2, human glucagon receptor. Briefly: cell-based or functional assay. The source holds these as a separate data set.
The target in test [13] is T2, human glucagon receptor. Briefly: SPA competition vs 125I-glucagon, receptor membranes. The source holds these as a separate data set.
The target in test [14] is T2, human glucagon receptor. The description is as above. The source holds these as a separate data set.
The target of test [15] is T2, human glucagon receptor. Briefly: cell-based or functional assay. The source holds these as a separate data set.
In test [16] the target is T1, human GLP-1 receptor. Nature of the test: cell-based or functional assay. The source holds these as a separate data set.
Test [17] has as its target T2, human glucagon receptor. Nature of the test: cell-based or functional assay. This is another data set of the same source.
Test [18] deals with T2, human glucagon receptor. Briefly: SPA competition vs 125I-glucagon, receptor membranes. This is another data set of the same source.
For test [19], the target named is T2, human glucagon receptor. Briefly: cell-based or functional assay. This is another data set of the same source.
The target of test [20] is T2, human glucagon receptor. Briefly: SPA competition vs 125I-glucagon, receptor membranes. The source holds these as a separate data set.
The target in test [21] is T2, human glucagon receptor. Described as above. The source holds these as a separate data set.
Test [22] addresses T2, human glucagon receptor. Briefly: cell-based or functional assay. The source holds these as a separate data set.
Test [23] has as its target T1, human GLP-1 receptor. Nature of the test: cell-based or functional assay. This is another data set of the same source.
The target of test [24] is T2, human glucagon receptor. Nature of the test: cell-based or functional assay. The source holds these as a separate data set.
The target in test [25] is T1, human GLP-1 receptor. Briefly: cell-based or functional assay. The source holds these as a separate data set.
For test [26], the target named is T2, human glucagon receptor. Nature of the test: cell-based or functional assay. The source holds these as a separate data set.
Test [27] has as its target T1, human GLP-1 receptor. Nature of the test: cell-based or functional assay. This is another data set of the same source.
Test [28] concerns the target T2, human glucagon receptor. Briefly: cell-based or functional assay. The source holds these as a separate data set.
The target in test [29] is T1, human GLP-1 receptor. Nature of the test: cell-based or functional assay. The source holds these as a separate data set.
The target in test [30] is T1, human GLP-1 receptor. Nature of the test: cell-based or functional assay. This is another data set of the same source.
The target in test [31] is T2, human glucagon receptor. Nature of the test: cell-based or functional assay. The source holds these as a separate data set.
Test [32] deals with T1, human GLP-1 receptor. Briefly: cell-based or functional assay. The source holds these as a separate data set.
Test [33] has as its target T2, human glucagon receptor. Briefly: cell-based or functional assay. The source holds these as a separate data set.
The target of test [34] is T1, human GLP-1 receptor. Briefly: cell-based or functional assay. This is another data set of the same source.
The target in test [35] is T2, human glucagon receptor. Briefly: cell-based or functional assay. The source holds these as a separate data set.
Test [36] addresses T1, human GLP-1 receptor. Nature of the test: cell-based or functional assay. This is another data set of the same source.
The target in test [37] is T2, human glucagon receptor. Nature of the test: cell-based or functional assay. This is another data set of the same source.
Test [38] deals with T1, human GLP-1 receptor. Briefly: cell-based or functional assay. This is another data set of the same source.
Test [39] deals with T2, human glucagon receptor. Nature of the test: cell-based or functional assay. The source holds these as a separate data set.
The target in test [40] is T1, human GLP-1 receptor. Briefly: cell-based or functional assay. This is another data set of the same source.

Values joined by “and” are separate entries in the source; they are usually repeats but may differ in a detail not shown here. Identical values can stand only once. Like-named read-outs stand apart in the source and are kept apart here. Bridge positions count the residues as written; N and C are the ends. Square brackets hold non-standard residues; d marks the D form. Ends that are not written are not given here. PhLac = O=C(O)[C@@H](O)Cc1ccccc1

In [1], “[PLA6, E9, K12E16(Lactam)] glucagon(6-39) (peptide)” came in with a GLP-1 EC50 of 6 nM. In [2], this molecule yielded a Glu IC50 of 72 nM and a Glucagon IC50 of 72 nM.

For the molecule FTSDYSKYLDERRAQDFVQWLMNTGPSSGAPPPS (lactam bridge Lys12-Glu16; C-terminal amide) [D9, K12E16(Lactam) glucagon(6-39)], the figures for the GLP-1 EC50 in [3] and in [5] were 18 nM and 119 nM, respectively. In test [4], this molecule returned a Glucagon IC50 of 828 nM. The molecule further gave a Glu IC50 in test [6] of 828 nM.

For the molecule GTFTSEYSKYLDSRRAQDFVQWLMNT-NH2 (also called peptide no) [[Glu^9]Glucagon(aa4-29)-NH2], the “cAMP pA2” value in test [7] is 7.05. Moreover, in [8], the “cAMP Inhibition IC50” value came out at 128 nM.

In the case of HSQGTFTSDYSRYLDSRRAQDFVQWLMNK [Glucagon R12 K29], the “cAMP Induction EC50” value came out at 0.41 nM in test [9] and 0.81 nM in test [10].

B1: [Glu^9]Glucagon(aa6-29)-NH2 (peptide)
peptide: FTSEYSKYLDSRRAQDFVQWLMNT-NH2
notes: also called [E^9]Glucagon(aa6-29)-NH2; peptide no; 11
Take B1: the figures for the half-inhibitory concentration (IC50) in test [11], in [13] and in [14] were 36.4 nM, 36 nM and 36.4 nM, respectively. Moreover, in [12], the “cAMP IC50” value came to 97.2 nM. The “cAMP pA2” value in test [12] and in [7] was 7.16 in each case. The “cAMP (I/A)50 inhibition index” value in test [7] came out at 486. The “cAMP Inhibition IC50” value in test [8] came out at 97 nM.

B2: [PLA^6, E^9]Glucagon(aa6-29)-NH2 (peptide)
peptide: [PhLac]TSEYSKYLDSRRAQDFVQWLMNT-NH2
notes: also called [PLA6, E9]; G(6-29); [PLA6, E9]Glucagon(6-29)
Take B2: in [15], the “IC50 (cAMP, inhibit 0.1 nM Glucagon)” value came to 2.39 nM. In [15], the “IC50 (cAMP, inhibit 0.2 nM Glucagon)” value amounted to 42.4 nM. Further, the “GLP-1 agonism EC50” value in test [16] was 901 nM. The “Glucagon antagonism IC50 (inhibit 0.8 nM glucagon)” value in [17] was 94.7 nM. For the same molecule, the “fold increase of affinity relative to the native Phe6 analog” value in test [18] was 3 fold. Further, the “Glucagon antagonism IC50 (inhibit 0.5nM G)” value in test [19] amounted to 23.8 nM. For the same molecule, the half-maximal inhibitory concentration (IC50) in [20] and in [21] was 12.3 nM in each case. Besides, the “IC50 (cAMP, inhibit 0.8 mM Glucagon)” value in test [22] amounted to 64.8 nM.

Consider [PhLac]TSDYSKYLDERRAKDFVQWLMDT-NH2 (lactam 11-15) [[PLA6, E16K20(lactam), D28]G(6-29)], for which the “GLP-1 agonism EC50” value was 10.6 nM in [23]; 48 nM in test [25]; 18.2 nM in test [16]; 10.6 nM in test [27]; 20.7 nM in test [29]; 6.9 nM and 4.2 nM in [32]. In test [34], the “GLP-1 agonism EC50” value is 6.9 nM and 4.2 nM. Also, the entries for the “Glucagon antagonism IC50 (inhibit 0.8 nM glucagon)” value in [24], in test [17] and in [28] were 13.7 nM, 20.3 nM and 13.7 nM, respectively. Also, the “Glucagon antagonism IC50 (inhibit 0.4 nM glucagon)” value in test [26] is 4.14 nM and 7.99 nM. For the same molecule, the “GLP-1 EC50” value in test [30] was determined as 4 nM. Also, the “Glucagon IC50” value in test [31] stood at 6 nM. Also, the “Glucagon antagonism IC50 (inhibit 0.2-0.8 nM glucagon)” value in test [33] is 11.7 nM and 5.5 nM; in test [35] it was 11.7 nM and 5.5 nM.

B3: [PLA6, K12E16(lactam), D28]G(6-29) (peptide)
peptide: [PhLac]TSDYSKYLDERRAQDFVQWLMDT-NH2
modifications: lactam 7-11; N-terminus assumed
SMILES: CSCC[C@H](NC(=O)[C@H](CC(C)C)NC(=O)[C@H](Cc1c[nH]c2ccccc12)NC(=O)[C@H](CCC(N)=O)NC(=O)[C@@H](NC(=O)[C@H](Cc1ccccc1)NC(=O)[C@H](CC(=O)O)NC(=O)[C@H](CCC(N)=O)NC(=O)[C@H](C)NC(=O)[C@H](CCCNC(=N)N)NC(=O)[C@H](CCCNC(=N)N)NC(=O)[C@@H]1CCC(=O)NCCCC[C@H](NC(=O)[C@H](CO)NC(=O)[C@H](Cc2ccc(O)cc2)NC(=O)[C@H](CC(=O)O)NC(=O)[C@H](CO)NC(=O)[C@@H](NC(=O)[C@@H](O)Cc2ccccc2)[C@@H](C)O)C(=O)N[C@@H](Cc2ccc(O)cc2)C(=O)N[C@@H](CC(C)C)C(=O)N[C@@H](CC(=O)O)C(=O)N1)C(C)C)C(=O)N[C@@H](CC(=O)O)C(=O)N[C@H](C(N)=O)[C@@H](C)O
Regarding B3, the “GLP-1 agonism EC50” value in test [36], in [32] and in test [34] was 38.5 nM throughout. Moreover, the “Glucagon antagonism IC50 (inhibit 0.2-0.8 nM glucagon)” value in test [37], in test [33] and in test [35] was 58.3 nM each time. Besides, the “GLP-1 EC50” value in test [38] turned out to be 177 nM; in [30] it was 21 nM. Moreover, the “Glucagon IC50” value came out at 63 nM in test [39] and 13 nM in test [31].

With SQGTXTSEYSKYLDSRRAQDFVQWLMNT (depsipeptide bond between Thr5 and PLA6; C-terminal amide) [[Thr5-O-PLA6,E9]Glucagon(2-29)], the “GLP-1 agonism EC50” value in test [40] was 1310 nM. Moreover, the “Glucagon antagonism IC50 (inhibit 0.5nM G)” value in test [19] stood at 6.49 nM.
